Numbered stars: 1 amine (or outer) side, 2 acyl side, 3 side chain; on linkers, the order of the positions; unused ones are H or OH. Square brackets hold non-standard residues; d marks the D form. Ends that are not written are not given here. X2 = 2‑amino‑1‑O‑methyl‑2‑deoxy‑alpha‑D‑glucopyranuronic acid, CO[C@H]1O[C@H](C(=O)[*:2])[C@@H](O)[C@H](O)[C@H]1N[*:1]; 2Furoyl(5-aminomethyl) = O=C(c1ccc(CN[*:1])o1)[*:2]; Aib = CC(C)(N)C(=O)O
B1: Seq ID No. 04 (peptide)
peptide: H[2Furoyl(5-aminomethyl)]EGTFTSD[Aib]SSYLEGQAAKEFI[Aib]WLVKGR-NH2
modifications: N-terminus assumed
SMILES: CC[C@H](C)[C@H](NC(=O)[C@H](Cc1ccccc1)NC(=O)[C@H](CCC(=O)O)NC(=O)[C@H](CCCCN)NC(=O)[C@H](C)NC(=O)[C@H](C)NC(=O)[C@H](CCC(N)=O)NC(=O)CNC(=O)[C@H](CCC(=O)O)NC(=O)[C@H](CC(C)C)NC(=O)[C@H](Cc1ccc(O)cc1)NC(=O)[C@H](CO)NC(=O)[C@H](CO)NC(=O)C(C)(C)NC(=O)[C@H](CC(=O)O)NC(=O)[C@H](CO)NC(=O)[C@@H](NC(=O)[C@H](Cc1ccccc1)NC(=O)[C@@H](NC(=O)CNC(=O)[C@H](CCC(=O)O)NC(=O)c1ccc(CNC(=O)[C@@H](N)Cc2c[nH]cn2)o1)[C@@H](C)O)[C@@H](C)O)C(=O)NC(C)(C)C(=O)N[C@@H](Cc1c[nH]c2ccccc12)C(=O)N[C@@H](CC(C)C)C(=O)N[C@H](C(=O)N[C@@H](CCCCN)C(=O)NCC(=O)N[C@@H](CCCNC(=N)N)C(N)=O)C(C)C
B2: Seq ID No. 11 (peptide)
peptide: HXGTFTSDVSSYLEGQAAKEFIAWLVKXR
modifications: Xaa1 at position 2 is furan aminoacid (5-aminomethyl-furan-2 carboxylic acid); Xaa2 at position 28 is dialkylated aminoacid (alpha-aminoisobutyric acid); C-terminal amide (Arg-NH2)
B3: Seq ID No. 02 (peptide)
peptide: H[2Furoyl(5-aminomethyl)]GTFTSDVSSYLEGQAAKEFIAWLVKGRG-NH2
modifications: N-terminus assumed
SMILES: CC[C@H](C)[C@H](NC(=O)[C@H](Cc1ccccc1)NC(=O)[C@H](CCC(=O)O)NC(=O)[C@H](CCCCN)NC(=O)[C@H](C)NC(=O)[C@H](C)NC(=O)[C@H](CCC(N)=O)NC(=O)CNC(=O)[C@H](CCC(=O)O)NC(=O)[C@H](CC(C)C)NC(=O)[C@H](Cc1ccc(O)cc1)NC(=O)[C@H](CO)NC(=O)[C@H](CO)NC(=O)[C@@H](NC(=O)[C@H](CC(=O)O)NC(=O)[C@H](CO)NC(=O)[C@@H](NC(=O)[C@H](Cc1ccccc1)NC(=O)[C@@H](NC(=O)CNC(=O)c1ccc(CNC(=O)[C@@H](N)Cc2c[nH]cn2)o1)[C@@H](C)O)[C@@H](C)O)C(C)C)C(=O)N[C@@H](C)C(=O)N[C@@H](Cc1c[nH]c2ccccc12)C(=O)N[C@@H](CC(C)C)C(=O)N[C@H](C(=O)N[C@@H](CCCCN)C(=O)NCC(=O)N[C@@H](CCCNC(=N)N)C(=O)NCC(N)=O)C(C)C
B4: Seq ID No. 08 (peptide)
peptide: H[2Furoyl(5-aminomethyl)]GTFTSDVSSYLEGQAAKEFIAWLVKGR-NH2
modifications: N-terminus assumed
SMILES: CC[C@H](C)[C@H](NC(=O)[C@H](Cc1ccccc1)NC(=O)[C@H](CCC(=O)O)NC(=O)[C@H](CCCCN)NC(=O)[C@H](C)NC(=O)[C@H](C)NC(=O)[C@H](CCC(N)=O)NC(=O)CNC(=O)[C@H](CCC(=O)O)NC(=O)[C@H](CC(C)C)NC(=O)[C@H](Cc1ccc(O)cc1)NC(=O)[C@H](CO)NC(=O)[C@H](CO)NC(=O)[C@@H](NC(=O)[C@H](CC(=O)O)NC(=O)[C@H](CO)NC(=O)[C@@H](NC(=O)[C@H](Cc1ccccc1)NC(=O)[C@@H](NC(=O)CNC(=O)c1ccc(CNC(=O)[C@@H](N)Cc2c[nH]cn2)o1)[C@@H](C)O)[C@@H](C)O)C(C)C)C(=O)N[C@@H](C)C(=O)N[C@@H](Cc1c[nH]c2ccccc12)C(=O)N[C@@H](CC(C)C)C(=O)N[C@H](C(=O)N[C@@H](CCCCN)C(=O)NCC(=O)N[C@@H](CCCNC(=N)N)C(N)=O)C(C)C
B5: Seq ID No. 10 (peptide)
peptide: H[2Furoyl(5-aminomethyl)]GTFTSD[Aib]SSYLEGQAAKEFI[Aib]WLVKGRG-NH2
modifications: N-terminus assumed
SMILES: CC[C@H](C)[C@H](NC(=O)[C@H](Cc1ccccc1)NC(=O)[C@H](CCC(=O)O)NC(=O)[C@H](CCCCN)NC(=O)[C@H](C)NC(=O)[C@H](C)NC(=O)[C@H](CCC(N)=O)NC(=O)CNC(=O)[C@H](CCC(=O)O)NC(=O)[C@H](CC(C)C)NC(=O)[C@H](Cc1ccc(O)cc1)NC(=O)[C@H](CO)NC(=O)[C@H](CO)NC(=O)C(C)(C)NC(=O)[C@H](CC(=O)O)NC(=O)[C@H](CO)NC(=O)[C@@H](NC(=O)[C@H](Cc1ccccc1)NC(=O)[C@@H](NC(=O)CNC(=O)c1ccc(CNC(=O)[C@@H](N)Cc2c[nH]cn2)o1)[C@@H](C)O)[C@@H](C)O)C(=O)NC(C)(C)C(=O)N[C@@H](Cc1c[nH]c2ccccc12)C(=O)N[C@@H](CC(C)C)C(=O)N[C@H](C(=O)N[C@@H](CCCCN)C(=O)NCC(=O)N[C@@H](CCCNC(=N)N)C(=O)NCC(N)=O)C(C)C
B6: Seq ID No. 07 (peptide)
peptide: H[X2]GTFTSDVSSYLEGQAAKEFIAWLVKGR-NH2
modifications: N-terminus assumed
SMILES: CC[C@H](C)[C@H](NC(=O)[C@H](Cc1ccccc1)NC(=O)[C@H](CCC(=O)O)NC(=O)[C@H](CCCCN)NC(=O)[C@H](C)NC(=O)[C@H](C)NC(=O)[C@H](CCC(N)=O)NC(=O)CNC(=O)[C@H](CCC(=O)O)NC(=O)[C@H](CC(C)C)NC(=O)[C@H](Cc1ccc(O)cc1)NC(=O)[C@H](CO)NC(=O)[C@H](CO)NC(=O)[C@@H](NC(=O)[C@H](CC(=O)O)NC(=O)[C@H](CO)NC(=O)[C@@H](NC(=O)[C@H](Cc1ccccc1)NC(=O)[C@@H](NC(=O)CNC(=O)[C@H]1O[C@H](OC)[C@H](NC(=O)[C@@H](N)Cc2c[nH]cn2)[C@@H](O)[C@@H]1O)[C@@H](C)O)[C@@H](C)O)C(C)C)C(=O)N[C@@H](C)C(=O)N[C@@H](Cc1c[nH]c2ccccc12)C(=O)N[C@@H](CC(C)C)C(=O)N[C@H](C(=O)N[C@@H](CCCCN)C(=O)NCC(=O)N[C@@H](CCCNC(=N)N)C(N)=O)C(C)C
B7: Seq ID No. 09 (peptide)
peptide: HXEGTFTSDXSSYLEGQAAKEFIXWLVKGRG
modifications: Xaa1 at position 2 is furan aminoacid (5-aminomethyl-furan-2 carboxylic acid); Xaa2 at position 10 and Xaa3 at position 24 are dialkylated aminoacid (alpha-aminoisobutyric acid); C-terminal amide (Gly-NH2)
B8: Seq ID No. 05 (peptide)
peptide: HGEGTFTSDXSSYLEGQAAKEFIXWLVKGR
modifications: Xaa1 at position 10 and Xaa2 at position 24 are dialkylated aminoacid (alpha-aminoisobutyric acid); C-terminal amide (Arg-NH2)

Target: GLP-1 receptor
Assay: cell-based or functional assay

Binder	EC50, Receptor Functional assay (intracellular cAMP in CHO/GLP-1R cells) [pM]
B1	72
H[X2]EGTFTSDVSSYLEGQAAKEFIAWLVKGR-NH2 [Seq ID No. 06]	838
B2	102
B3	43
H[2Furoyl(5-aminomethyl)]EGTFTSDVSSYLEGQAAKEFIAWLVKGRG-NH2 [Seq ID No. 01]	103
B4	601
H[2Furoyl(5-aminomethyl)]GTFTSDVLSYQEGQAAKLFIEWLVKGR-NH2 [Seq ID No. 12]	2240
B5	3380
B6	56
H[2Furoyl(5-aminomethyl)]EGTFTSDVSSYLEGQAAKEFIAWLVKGR-NH2 [Seq ID No. 03]	61
B7	1000
B8	83

Source: US20110269680A1 (PANACEA BIOTEC, published 2011)
